B1: TPR 5TU (parent)
chain: GGAUCUUCUCGAUCUAACAAAAAAGACAAAUCUGCCACAAAGCUUGAGAGCAUCUUCGGAUGCAGAGGCGGCAGCCUUCGGUGGCGCGAUAGCGCCAACGUUCUCAACUAUGACACGCAAAACGCGUGCUCCGUUGAAUGGAGUUUAUCAUG

Fewer inactive variants are shown than the library holds.

The variants in this data set derive from B1. Kind of data set: polymerase ribozyme fitness, log enrichment relative to wild type (log ratio); higher = more active; in vitro selection for triplet polymerase activity. Put shortly:
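A heterodimeric triplet polymerase ribozyme had each of its subunits mutagenized by PCR into a library, which was transcribed. One round of in vitro selection, done in triplicate, annealed each library with a biotinylated primer, its partner subunit and triplets, then incubated it frozen at −7 °C before gel excision of extended constructs, streptavidin-bead capture and RT-PCR. Fitness is the logarithm of genotype enrichment relative to wild-type enrichment, based on Illumina sequencing of inputs and outputs and inverse-variance-weighted replicate averages. A base-2 logarithm is used, and genotypes were kept only with ≥10 input reads and ≥1 read per output.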
For the variant C72U A73U G83A, the “polymerase ribozyme fitness (log ratio)” value was -2.51.

For the variant U77C C95U G141A, the “polymerase ribozyme fitness (log ratio)” value is at most -4.2.

For A73U C87U G92A, the “polymerase ribozyme fitness (log ratio)” value is 0.224.

Consider U78A C93U, for which the “polymerase ribozyme fitness (log ratio)” value is at most -4.2.

Take G80A G88C A113U C116U U148A: the “polymerase ribozyme fitness (log ratio)” value is at most -4.2.

For A73U G83C C123G, the “polymerase ribozyme fitness (log ratio)” value was -2.93.

With G80A G84A C116A U135G, the “polymerase ribozyme fitness (log ratio)” value is at most -4.2.

As for C76U C93G G124A C132A, the “polymerase ribozyme fitness (log ratio)” value was at most -4.2.

Regarding G80A C96G, the “polymerase ribozyme fitness (log ratio)” value is -1.11.

As for C76G C93U, the “polymerase ribozyme fitness (log ratio)” value was at most -4.2.

Regarding G81A G86A C99G, the “polymerase ribozyme fitness (log ratio)” value is -1.98.

In the case of C76U A121U, the “polymerase ribozyme fitness (log ratio)” value was found to be 0.67.

For the variant C75U G141C, the “polymerase ribozyme fitness (log ratio)” value was -1.98.

As to A73G A91U, the “polymerase ribozyme fitness (log ratio)” value is at most -4.2.

Turning to G80U C114U, the “polymerase ribozyme fitness (log ratio)” value is -2.31.

C76A G83A U134G: the “polymerase ribozyme fitness (log ratio)” value is -3.45.

For G74C G81C, the “polymerase ribozyme fitness (log ratio)” value is -3.94.

As for U78G C96U A107U G141C A150G, the “polymerase ribozyme fitness (log ratio)” value is at most -4.2.

On to C75G G84U, for which the “polymerase ribozyme fitness (log ratio)” value is at most -4.2.

On to G81A A106U, for which the “polymerase ribozyme fitness (log ratio)” value was -1.09.

As to U78C A120U G133U G141A, the “polymerase ribozyme fitness (log ratio)” value was -3.21.

Consider A73G C93U G152A, for which the “polymerase ribozyme fitness (log ratio)” value was -2.84.

On to C76A C85G, for which the “polymerase ribozyme fitness (log ratio)” value was -3.53.

In the case of C72G U101G, the “polymerase ribozyme fitness (log ratio)” value is at most -4.2.

C76U C87U: the “polymerase ribozyme fitness (log ratio)” value was -0.242.

Take U78A G81A C93G A97U U151C: the “polymerase ribozyme fitness (log ratio)” value is at most -4.2.

As for G81C G92A, the “polymerase ribozyme fitness (log ratio)” value was -3.5.

Turning to U77G C79G G83C, the “polymerase ribozyme fitness (log ratio)” value is at most -4.2.

As for A73U G84A C108G G141A U145C, the “polymerase ribozyme fitness (log ratio)” value was at most -4.2.

Consider C75U C99U, for which the “polymerase ribozyme fitness (log ratio)” value was -2.07.

With C76U C96A, the “polymerase ribozyme fitness (log ratio)” value worked out at 0.322.

As for U82A C118U, the “polymerase ribozyme fitness (log ratio)” value is -0.0134.

For G81C G94A, the “polymerase ribozyme fitness (log ratio)” value is -0.416.

Regarding C76A C87G C93U, the “polymerase ribozyme fitness (log ratio)” value is at most -4.2.

For U82A C93U U145G, the “polymerase ribozyme fitness (log ratio)” value was -2.53.

As for U82A G126A G133C, the “polymerase ribozyme fitness (log ratio)” value is -1.01.

On to G81A A97G C125U, for which the “polymerase ribozyme fitness (log ratio)” value was -0.572.

For the variant G81A C105G A121U, the “polymerase ribozyme fitness (log ratio)” value is -1.1.

For A73G C96U, the “polymerase ribozyme fitness (log ratio)” value was -0.103.

Turning to C75U A91G C99U, the “polymerase ribozyme fitness (log ratio)” value is -3.56.

On to C76U U77G G81U G92A C123A, for which the “polymerase ribozyme fitness (log ratio)” value is at most -4.2.

Regarding C76A U145G, the “polymerase ribozyme fitness (log ratio)” value was -0.329.

On to C75U G92U, for which the “polymerase ribozyme fitness (log ratio)” value was -2.38.

Take C75U G92C: the “polymerase ribozyme fitness (log ratio)” value is -1.11.

Turning to C76U U78C A106C, the “polymerase ribozyme fitness (log ratio)” value was -1.92.

Consider A73G C85U U102G G124A, for which the “polymerase ribozyme fitness (log ratio)” value is at most -4.2.

In the case of C76U C85U U101C U145G, the “polymerase ribozyme fitness (log ratio)” value is -0.2.

Take C76A U82G U146A: the “polymerase ribozyme fitness (log ratio)” value was -0.356.

For the variant G80A A89U C95U A120G, the “polymerase ribozyme fitness (log ratio)” value was -1.11.

For the variant C76U C79A C93U C116A C118A, the “polymerase ribozyme fitness (log ratio)” value is at most -4.2.

As for C76U C85A, the “polymerase ribozyme fitness (log ratio)” value was -2.44.

With C76U C85G, the “polymerase ribozyme fitness (log ratio)” value was -0.632.

As for C72U G124A U146G, the “polymerase ribozyme fitness (log ratio)” value was -1.3.

Regarding C76A G136A, the “polymerase ribozyme fitness (log ratio)” value turned out to be 0.971.

In the case of C79U C85G A138G, the “polymerase ribozyme fitness (log ratio)” value is at most -4.2.

A73C G92C: the “polymerase ribozyme fitness (log ratio)” value is -3.64.

For the variant G80U C114U U144C, the “polymerase ribozyme fitness (log ratio)” value is -3.95.

For the variant C76A A107G U145C, the “polymerase ribozyme fitness (log ratio)” value is at most -4.2.

Consider G74A C85A U90C G141A U148C, for which the “polymerase ribozyme fitness (log ratio)” value was at most -4.2.

Regarding G81A C87U A97C U101A U104G C116U, the “polymerase ribozyme fitness (log ratio)” value is -4.01.

Take C75U G81A C85A C95G A98U: the “polymerase ribozyme fitness (log ratio)” value was -3.71.

Consider C76G C85G G92A A120C C129U, for which the “polymerase ribozyme fitness (log ratio)” value was at most -4.2.

Consider U82A A113C G117U G141C, for which the “polymerase ribozyme fitness (log ratio)” value was at most -4.2.

With G80A G84A, the “polymerase ribozyme fitness (log ratio)” value is -0.264.

With G81A C95U, the “polymerase ribozyme fitness (log ratio)” value was -1.88.

For the variant C76A U82G, the “polymerase ribozyme fitness (log ratio)” value is -1.94.

Consider G80A C99G U127C, for which the “polymerase ribozyme fitness (log ratio)” value was -2.19.

With A73U C85U, the “polymerase ribozyme fitness (log ratio)” value was -0.649.

Turning to U77A G88U C103G U151C, the “polymerase ribozyme fitness (log ratio)” value is at most -4.2.

With C72G C99G, the “polymerase ribozyme fitness (log ratio)” value was at most -4.2.

C72G C99U U101G A142U: the “polymerase ribozyme fitness (log ratio)” value was at most -4.2.

With C76U A137G, the “polymerase ribozyme fitness (log ratio)” value was -0.882.

As for G80U G81A A142G, the “polymerase ribozyme fitness (log ratio)” value was -1.49.

Take A73U G84U G152A: the “polymerase ribozyme fitness (log ratio)” value was -3.83.

C72U C85U C95U: the “polymerase ribozyme fitness (log ratio)” value is -0.261.

On to C76A A107G C123U A142C, for which the “polymerase ribozyme fitness (log ratio)” value was -3.65.

Turning to U78A A91U A138C, the “polymerase ribozyme fitness (log ratio)” value was at most -4.2.

On to A73C G141A, for which the “polymerase ribozyme fitness (log ratio)” value is -3.8.

For the variant U82C C95G U148C, the “polymerase ribozyme fitness (log ratio)” value is -4.02.

As for C79U G140U, the “polymerase ribozyme fitness (log ratio)” value was -3.68.

With A73U G126U, the “polymerase ribozyme fitness (log ratio)” value was -0.661.

For the variant A73U A97G U130G, the “polymerase ribozyme fitness (log ratio)” value is at most -4.2.

Consider G80C G92U, for which the “polymerase ribozyme fitness (log ratio)” value was -3.97.

For G81U U82A G92A G152U, the “polymerase ribozyme fitness (log ratio)” value was at most -4.2.

Values taken from the RNAGym collection of RNA variant scans (doi:10.1073/pnas.2313332121).
